Test results published in patent publication US6265551A, “Form of dipeptidylpeptidase IV (CD26) found in human serum, antibodies thereto, and uses thereof” (Dana-Farber Cancer Institute, Inc., priority 1996, dated 2001).

Substrate: NCC(=O)N1CCC[C@H]1C(=O)Nc1ccc([N+](=O)[O-])cc1
Test: purified protein, by the assay type
Settings: other: rsCD26; Lineweaver-Burke transformation; substrate at different concentrations; 20.0 °C
Description: The DPPIV enzyme activities of the rsCD26 and serum DPPIV were analyzed by Michaelis-Menten kinetics by assessing kinetics of hydrolysis of substrate at different concentrations.
DPPIV activity: The primary substrate used for determining DPPIV activity in all assays was Gly-Pro-p-nitroanilide (Gly-Pro-pNA; Sigma), which is hydrolyzed by DPPIV to release pNA absorbing strongly at 405 nm. Kinetic assays were performed using varying amounts of substrate in order to obtain estimates of the Km and Vmax using standard Michaelis-Menten kinetics. For screening assays of DPPIV activity, 150 ml of substrate was used at 1 mg/ml (2 mM final concentration) in phosphate buffer (pH7.6, 100 mM) in 96 well flat-bottomed microtiter plates together with 10 ml of appropriately diluted sample. For samples obtained after elution from the s-Sepharose column, the pH was raised to pH7.6 by addition of 25 μl of 1M Tris-HCl, pH7.6 to the reaction mixture. One unit (U) of enzyme activity was defined as the amount of enzyme that cleaved 1 mmol of Gly-Pro-pNA/min at pH7.6 and 20° C. […] The pH optimum was determined substituting phosphate buffer (100 mM, pH4.5-pH9) in place of standard incubation buffer.

B1: recombinant soluble CD26 (rsCD26), full extracellular domain of human T cell membrane CD26/DPPIV, 105 kDa form, from transfected CHO cells (Homo sapiens) (protein)
chain: NKGTDDATADSRKTYTLTDYLKNTYRLKLYSLRWISDHEYLYKQENNILVFNAEYGNSSVFLENSTFDEFGHSINDYSISPDGQFILLEYNYVKQWRHSYTASYDIYDLNKRQLITEERIPNNTQWVTWSPVGHKLAYVWNNDIYVKIEPNLPSYRITWTGKEDIIYNGITDWVYEEEVFSAYSALWWSPNGTFLAYAQFNDTEVPLIEYSFYSDESLQYPKTVRVPYPKAGAVNPTVKFFVVNTDSLSSVTNATSIQITAPASMLIGDHYLCDVTWATQERISLQWLRRIQNYSVMDICDYDESSGRWNCLVARQHIEMSTTGWVGRFRPSEPHFTLDGNSFYKIISNEEGYRHICYFQIDKKDCTFITKGTWEVIGIEALTSDYLYYISNEYKGMPGGRNLYKIQLSDYTKVTCLSCELNPERCQYYSVSFSKEAKYYQLRCSGPGLPLYTLHSSVNDKGLRVLEDNSALDKMLQNVQMPSKKLDFIILNETKFWYQMILPPHFDKSKKYPLLLDVYAGPCSQKADTVFRLNWATYLASTENIIVASFDGRGSGYQGDKIMHAINRRLGTFEVEDQIEAARQFSKMGFVDNKRIAIWGWSYGGYVTSMVLGSGSGVFKCGIAVAPVSRWEYYDSVYTERYMGLPTPEDNLDHYRNSTVMSRAENFKQVEYLLIHGTADDNVHFQQSAQISKALVDVGVDFQAMWYTDEDHGIASSTAHQHIYTHMSHFIKQCFSLP
Km: 280 µM
